Results: the supplement of paper PMC10201428
± gives the standard deviation of the averaged measurements.

Experiments:
[1] = test system: VchCAST RNA-guided transposition machinery (E. coli BL21(DE3) host, lacZ target); assay: relative integration efficiency (T-RL orientation) vs wild-type transposon end (log2 (normalized fold change)); transposon end mutated: right end (5 bp flank + 75 bp right end); higher = more efficient transposition
Outline: (§1)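 Each barcoded pool, 1549 left-end or 1849 right-end transposon variants in a pUC57 mini-transposon donor, went into E. coli BL21(DE3) with a T7-driven effector plasmid (CRISPR array, tniQ-cas8-cas7-cas6, tnsA-tnsB-tnsC). Plates contained 0.1 mM IPTG and were held at 37°C for 18 h. Input plasmids and genomic integration junctions were PCR-amplified and read by Illumina sequencing, with two biological output replicates and four reference barcodes. Relative integration efficiency is the fold change of output over input barcode abundance, normalised to the reference barcodes and log-transformed.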

[2] = test system: VchCAST RNA-guided transposition machinery (E. coli BL21(DE3) host, lacZ target); assay: relative integration efficiency (T-LR orientation) vs wild-type transposon end (log2 (normalized fold change)); transposon end mutated: right end (5 bp flank + 75 bp right end); higher = more efficient transposition
Outline: as §1

Sequence	relative integration efficiency (log2) [1]	relative integration efficiency (log2) [2]
ACATTTGTTGATACAACCATAAAATGATAATTACACCCATAAATTGATAATGCGAACACCCATAAATTGATATTGCCTCTGATCATAGTCAGACCAACATTGCTACGACCCGTATTCGCACCGACAC	-0.292 ± 0.045	0.16 ± 0.083
ACATTTGTTGATACAACCATTAAATGATAATTCCACCCATCAATTGATAATTATCACACCCAATTTAACTATAACGCTCTGATCATAGTCAGACCAACATTGCTACGACCCGTATTCGCACCGACAC	-1.79 ± 0.23	1.01 ± 0.31
ACATTTGTTCATACAACCCTAAAATGATAATTACACCCATAAATTGATCATTATCACCCCCAATTTAACTATAACGCTCTGATCATAGTCAGACCAACATTGCTACGACCCGTATTCGCACCGACAC	-2.63 ± 0.59	-0.724 ± 0.35
ACATTTGTTGATACACCCATAAATTGATAATTACACCCATAAATTGATAATTATCACAACCATAAAATGATAATTACTCTGATCATAGTCAGACCAACATTGCTACGACCCGTATTCGCACCGACAC	-0.366 ± 0.2	-0.749 ± 0.39
ACATTTGTTGATACAACCATAAAATGATAATTAATAATTATCACCCATAAATTGATAATTATCAACAAACGCCCGGTCGCGGTACTCTGATCATAGTCAGACCAACATTGCTACGACCCGTATTCGC	-3.56 ± 0.2	-0.012 ± 0.0046
ACATTTGTTGATACAACCATAAAATGATAATTAATAATTATTTATAATCAGCAACTTAACCACACCCATAAATTGATAATTATCAACAAACGCCCGGTCGCGGTACTCTGATCATAGTCAGACCAAC	-2.81 ± 0.91	1.01 ± 0.042
ACATTTGTTGATACAACCATAAAATGATAATTACACCCATAAATTGATAATTATACACCCCATAAATTGATATTGCCTCTGATCATAGTCAGACCAACATTGCTACGACCCGTATTCGCACCGACAC	-1.07 ± 0.23	1.28 ± 0.067
ACATTTGTGGATACAACCATAAAATGATAATTACCACCCCTAAATTGATAATTATCACACCCATTTAACTATAACGCTCTGATCATAGTCAGACCAACATTGCTACGACCCGTATTCGCACCGACAC	-2.781 ± 0.006	-0.51 ± 0.037
ACAAATGTTGATACAACCATAAAATGATAATTACACCCATAAATTGATAATTATCACACCCATAAATTGATATTGCCTCTGATCATAGTCAGACCAACATTGCTACGACCCGTATTCGCACCGACAC	0.215 ± 0.12	0.224 ± 0.075
ACATTTGTTGATACAACCAATAAATGATAATTACACCCATAAATTGATAATTATCACACCCATAAATTGATATTGCCTCTGATCATAGTCAGACCAACATTGCTACGACCCGTATTCGCACCGACAC	-0.395 ± 0.089	-0.407 ± 0.67
ACATTTGTTGATACAACCATAAAATGATAATTACACCCCGCCCGGTCGCCGGCGACACAAACGCCCGGTCGCGGTAAGAGGATCATAGTCAGACCAACATTGCTACGACCCGTATTCGCACCGACAC	-2.33 ± 0.061	0.746 ± 0.13
ACATTTGTTGATACAACCATAAGTTGATATTTTCAACCATAAAATGATAATTATCAGTGGGTATTTAACTATAACGCTCTGATCATAGTCAGACCAACATTGCTACGACCCGTATTCGCACCGACAC	-0.962 ± 0.12	2.48 ± 0.2
ACATTTGTGGATACAACCCTAAAATGATAATTACACCCATAAATGGATCATTATCACCCCCAATTTAACTATAACGCTCTGATCATAGTCAGACCAACATTGCTACGACCCGTATTCGCACCGACAC	-4.36 ± 0.35	-1.88 ± 0.26
ACATTTGTGGATACAACCATAAAATGATAATTACACCCATAAATGGATTATTATCACACCCAATTTAACTATAACGCTCTGATCATAGTCAGACCAACATTGCTACGACCCGTATTCGCACCGACAC	-1.72 ± 0.3	1.2 ± 0.22
ACATTTGTTGATACAACCCTAAAATGATAATTACACCCATAAATTGATCATTATCACCCCCAATTTAACTATAACGCTCTGATCATAGTCAGACCAACATTGCTACGACCCGTATTCGCACCGACAC	-2.81 ± 0.49	0.404 ± 0.19
ACATTTGTGGATACAACCATAAAATGATAATTACACCCATAAATTTATTATTATCACACCCAATTTAACTATAACGCTCTGATCATAGTCAGACCAACATTGCTACGACCCGTATTCGCACCGACAC	-2.14 ± 0.55	1.47 ± 0.11
ACATTTGTTGATACAACCATAAAATGATAATTACACCCATAAATTGATAATTATCACACCCATAAATTGATATTGCCTCTGGCTAGCATTATACCTAGGACTGAGCTAGCTGTCAACGCACCGACAC	-2.99 ± 0.27	1.91 ± 0.064
ACATTTGTTAAAAAAACCATACGTTGATTTTACGAAACCATACGCTGAAATAATCACACCCATAAATTGATATTGCCTCTGATCATAGTCAGACCAACATTGCTACGACCCGTATTCGCACCGACAC	-5.94 ± 0.086	-5.9 ± 0.37

Sequence	relative integration efficiency (log2) [1]	relative integration efficiency (log2) [2]
ACATTTGTTGATACAACCATAAAATGATAATTAATAATTATTTATAATCAGCAACTTAACCACAACACCCATAAATTGATAATTATCACACCCATAAATTGATATTGCCTCTGATCATAGTCAGACC	-3.94 ± 1.1	-2.74 ± 0.53
AGTAATGTTGATACAACCATAAAATGATAATTACACCCATAAATTGATAATTATCACACCCATAAATTGATATTGCCTCTGATCATAGTCAGACCAACATTGCTACGACCCGTATTCGCACCGACAC	-0.121 ± 0.05	-0.0802 ± 0.26
ACATTGGTGGATACAACCATAAAATGATAATTACACCCATAAATTCATCATTATCACACCCAATTTAACTATAACGCTCTGATCATAGTCAGACCAACATTGCTACGACCCGTATTCGCACCGACAC	-7.11 ± 0.38	-4.79 ± 0.16
ACATTTGTTGATAAAACCATACGTTGATTTTAAGAAACCATACGCTGAAATAATCACACCCATAAATTGATATTGCCTCTGATCATAGTCAGACCAACATTGCTACGACCCGTATTCGCACCGACAC	-6.06 ± 0.18	-3.87 ± 0.6
ACATTTGTTGATACCACCATCAAATGGTAATTCCACCCATAAATTGATAATTATCACACCCAATTTAACTATAACGCTCTGATCATAGTCAGACCAACATTGCTACGACCCGTATTCGCACCGACAC	-3.19 ± 0.23	-0.205 ± 0.08
ACATTTGTTGATACAACCATAAAATGATAATTAATAATTATTTATAATCAGCAACTCACCCATAAATTGATAATTATCACACCCATAAATTGATATTGCCTCTGATCATAGTCAGACCAACATTGCT	-3.48 ± 0.49	-2.22 ± 1.2
ACATTTGTTGATACCACCATCAAATGGTAATTACACCCATAAATTGATAATTATCACACCCAATTTAACTATAACGCTCTGATCATAGTCAGACCAACATTGCTACGACCCGTATTCGCACCGACAC	-2.79 ± 0.21	0.203 ± 0.17
ACATTTGTTGATACAACCATAAAATGATCATTACACCCATAAATTGATAATTATCACACCCCATTTAACTATAACGCTCTGATCATAGTCAGACCAACATTGCTACGACCCGTATTCGCACCGACAC	-2.04 ± 0.29	1.74 ± 0.078
ACATTTGTTGATACACCCATAAATTGATAATTACAACCATATATTGATATCTCTCACACCCATAAATTGATATTGCCTCTGATCATAGTCAGACCAACATTGCTACGACCCGTATTCGCACCGACAC	-0.676 ± 0.13	-0.339 ± 0.29
ACATTTGTCGATACAACCCTAAAATGATAATTACACCCATAAATGGATAATTATCACCCCCAATTTAACTATAACGCTCTGATCATAGTCAGACCAACATTGCTACGACCCGTATTCGCACCGACAC	-3.44 ± 0.12	-1.16 ± 0.21
ACATTTGTTGATACAACCATAAAATGATAATTACACCCTAAAATTGATAATTATCACACCCATAAATTGATATTGCCTCTGATCATAGTCAGACCAACATTGCTACGACCCGTATTCGCACCGACAC	-0.736 ± 0.05	-1.14 ± 0.11
ACATTTGTTGATACAACCATAAAATGATCATTCACCCATAAATTGATAATTATCACACCCACATTTAACTATAACGCTCTGATCATAGTCAGACCAACATTGCTACGACCCGTATTCGCACCGACAC	-3.25 ± 0.26	0.654 ± 0.11
ACATTTGTTGATACAACCATAAAATGATAATTACACCCATAAATTGATACGGCGACACAAACGCCCGGTCGCGGTAAGAGGATCATAGTCAGACCAACATTGCTACGACCCGTATTCGCACCGACAC	-0.726 ± 0.13	2.25 ± 0.24
ACATTTGTTGATACAACCATAAAATGATAATTACACCCATAAATTGATAATTATCAGTGGCATAAATTGATATTGCCTCTGATCATAGTCAGACCAACATTGCTACGACCCGTATTCGCACCGACAC	-0.377 ± 0.12	1.86 ± 0.12
TGTATTGTTGATACAACCATAAAATGATAATTACACCCATAAATTGATAATTATCACACCCATAAATTGATATTGCCTCTGATCATAGTCAGACCAACATTGCTACGACCCGTATTCGCACCGACAC	-0.0404 ± 0.0046	0.421 ± 0.14
ACATTTGTTGATACAACCATAAAATGATAATTACACCCATAAATTGATAATTATCACACCCATAAATTGATATTGCCTCTGATCATAGTCAATGTGATAACAATCACAGAAGACCAAGCACCGACAC	0.245 ± 0.16	-0.0829 ± 0.35
ACATTTGTTGATACAACCATAAGTTGATATTTTCACCCATAAATTGATATTGCTCACAACCATATATTGATATCTCCTCTGATCATAGTCAGACCAACATTGCTACGACCCGTATTCGCACCGACAC	-0.904 ± 0.14	0.0122 ± 0.21
